The text below walks through data of US20260035463A1 (MINGHUI PHARMACEUTICAL HANGZHOU, published 2026).

The assay concerns the target T1, recombinant human PD-1 protein (human, UniProt Q15116 25-167, limits assumed).
T1 construct: The construct is not described; also called human recombinant PD-1
The assay is described as follows: screening of the anti-PD-1 phage display library; method not detailed.

T1 sequence (Q15116 25-167 limits assumed): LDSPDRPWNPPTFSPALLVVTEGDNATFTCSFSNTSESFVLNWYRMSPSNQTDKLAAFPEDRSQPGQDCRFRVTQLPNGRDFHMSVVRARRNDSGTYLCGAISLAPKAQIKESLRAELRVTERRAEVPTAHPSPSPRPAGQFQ

B1: Anti-PD-1 sdAb VHH (VHH)
VHH: QVQLVESGGGLVQPGGSLRLSCATSGSRRSIYAMGWFRQAPGKGLEFVAGIGWAYATTYYADSVKGRFTISRDNTKNTLYLQMNSLRAEDTAVYYCAADLDHSGFDYWGQGTLVTVSS
notes: Obtained from an alpaca phage display library; also called anti-PD-1 VHH antibody; VHH single-domain antibody
On to B1, for which the binding result is given as “binds”.
